Experimental data published in article PMC8528048, “Chemoselective cysteine or disulfide modification via single atom substitution in chloromethyl acryl reagents” (Chemical Science, 2021).

System: Micrococcus lysodeikticus lyophilized cell suspensions
Test: Lysozyme enzymatic assay: absorbance change at 450 nm of cell suspensions
Format: biochemical
Conditions: 0.01 mg/mL enzyme, 10 μL into 250 μL cell suspension 0.32 mg/mL, 66 mM phosphate buffer pH 6.2; A450 every minute for 15 minutes; ratio of slopes minus blank
Procedure: Lysozyme is an antimicrobial enzyme that is capable of hydrolyzing the 1,4-beta-linkages in the peptidoglycan of Gram-positive bacterial cell walls, thus leading to the lysis of bacteria (Fig. 8a). Therefore, the catalytic activity of modified lysozyme was assessed by investigation of the absorbance change at 450 nm of Micrococcus lysodeikticus lyophilized cell suspensions over time, where the activity of the modified lysozyme is proportional to their capability to hydrolyze the bacterial cell walls.[45] In comparison to native lysozyme, the disulfide-modified lysozyme Ly-PEG-Tz retained 86% of its activity (Fig. 8b, calculation details shown in Section 8.3 in ESI ^†).
Fig. 8 (a) The hydrolysis of 1,4-beta-linkages between N-acetyl-D-glucosamine (NAG) and N-acetylmuramic acid (NAM) residues in peptidoglycans of Gram-positive bacterial cell walls. The absorbance of the cell suspension at 450 nm was monitored to evaluate their catalytic activity and the rate of absorbance decrease was proportional to its activity. […]
The lysozyme enzymatic assay was performed according to the protocol form Sigma Aldrich’s technical bulletin. […] 250 μL of the cell suspensions was added to the 96-well plate and the absorbance was measured at 450 nm. According to the obtained absorbance, the concentration was carefully adjusted to ensure the absorbance at 450 nm between 0.6 and 0.7. […]

Substance | catalytic activity retained in comparison to native lysozyme
Ly-PEG5-Tz: lysozyme statistically modified at lysines with Tz-PEG5-NHS; mixture of no, single and dual modification | Total loss of the activity
Ly-PEG-Tz: lysozyme (hen egg white) modified at the C6–C127 disulfide with PEG-tetrazine via compound 8 | 86%
